From article PMC8479045, “Assembly defects of human tRNA splicing endonuclease contribute to impaired pre-tRNA processing in pontocerebellar hypoplasia” (Nature Communications, 2021)
Where “and” joins values, the source holds several entries; their conditions need not be identical. Identical values can stand only once.

Tests used:
[1] = system: TSEN2 H377A (inactive);TSEN34 H255A (inactive);TSEN15;TSEN54 (Homo sapiens;Homo sapiens;Homo sapiens;Homo sapiens); experiment: fluorescence anisotropy; settings: FA: 50 mM HEPES-NaOH pH 7.4, 100 mM NaCl, 22 °C, 70 nM Cy5-RNA; EMSA: same buffer + 1 mM DTT, 4% glycerol, on ice, 10 nM RNA; pull-down: 50 mM HEPES-NaOH pH …
[2] = system: TSEN2 H377A (inactive);TSEN34 H255A (inactive);TSEN15;TSEN54 (Homo sapiens;Homo sapiens;Homo sapiens;Homo sapiens); experiment: competition (fluorescence anisotropy); settings: competitor of 3'-Cy5 pre-tRNA-Phe; FA: 50 mM HEPES-NaOH pH 7.4, 100 mM NaCl, 22 °C, 70 nM Cy5-RNA; EMSA: same buffer + 1 mM DTT, 4% glycerol, on ice, 10 nM RNA; pull-down: 50 mM HEPES-NaOH pH …
[3] = molecular target: T1, heterotetrameric tRNA splicing endonuclease TSEN (TSEN2–15–34–54) (human, UniProt Q8NCE0 1-465; Q8WW01 1-171; Q9BSV6 1-310; Q7Z6J9 1-526, high degree of phosphorylation (sites not given)); experiment: native MS; purified wt TSEN (1.09 mg/ml) and wt TSEN/CLP1 (1.88 mg/ml) from insect cells, exchanged into 200 mM ammonium acetate pH 7.5; Q-ToF modified for high-mass complexes; settings: both partners purified
T1 construct: human TSEN2, open reading frame, UniProtKB Q8NCE0; human TSEN15, open reading frame, UniProtKB Q8WW01; human TSEN34, open reading frame, UniProtKB Q9BSV6; human TSEN54, open reading frame, UniProtKB Q7Z6J9; His tags were removed with TEV protease; also called tetrameric TSEN; TSEN2–15–34–54 heterotetramer; source: Sf21 insect cells (baculovirus), co-expressed (with CLP1), purified (Ni-NTA, …)
T1 sequence (looked up) 1: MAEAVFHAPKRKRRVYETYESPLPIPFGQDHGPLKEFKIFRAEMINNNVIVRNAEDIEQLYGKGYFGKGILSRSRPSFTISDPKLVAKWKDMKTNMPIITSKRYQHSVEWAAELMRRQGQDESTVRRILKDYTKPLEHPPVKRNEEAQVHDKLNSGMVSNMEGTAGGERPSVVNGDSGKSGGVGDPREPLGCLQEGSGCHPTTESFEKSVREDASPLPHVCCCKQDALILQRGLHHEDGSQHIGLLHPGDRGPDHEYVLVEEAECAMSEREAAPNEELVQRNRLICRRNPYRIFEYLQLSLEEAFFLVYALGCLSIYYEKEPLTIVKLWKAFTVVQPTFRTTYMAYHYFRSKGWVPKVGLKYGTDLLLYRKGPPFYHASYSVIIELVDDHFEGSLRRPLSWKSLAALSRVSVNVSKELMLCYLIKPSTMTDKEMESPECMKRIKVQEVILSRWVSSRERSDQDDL
T1 sequence (looked up) 2: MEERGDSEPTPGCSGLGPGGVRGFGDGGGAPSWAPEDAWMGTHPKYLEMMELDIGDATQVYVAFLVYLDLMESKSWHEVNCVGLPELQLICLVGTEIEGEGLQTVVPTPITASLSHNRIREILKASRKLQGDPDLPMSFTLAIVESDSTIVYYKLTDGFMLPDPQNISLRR
T1 sequence (looked up) 3: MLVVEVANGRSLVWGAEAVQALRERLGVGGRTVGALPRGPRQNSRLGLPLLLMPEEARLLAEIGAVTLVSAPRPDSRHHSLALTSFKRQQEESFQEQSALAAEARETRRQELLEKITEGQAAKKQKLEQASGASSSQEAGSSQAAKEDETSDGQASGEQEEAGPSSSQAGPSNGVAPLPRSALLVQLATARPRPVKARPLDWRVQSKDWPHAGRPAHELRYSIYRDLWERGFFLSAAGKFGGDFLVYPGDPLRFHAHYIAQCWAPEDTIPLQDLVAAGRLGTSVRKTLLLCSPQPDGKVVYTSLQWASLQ
T1 sequence (looked up) 4: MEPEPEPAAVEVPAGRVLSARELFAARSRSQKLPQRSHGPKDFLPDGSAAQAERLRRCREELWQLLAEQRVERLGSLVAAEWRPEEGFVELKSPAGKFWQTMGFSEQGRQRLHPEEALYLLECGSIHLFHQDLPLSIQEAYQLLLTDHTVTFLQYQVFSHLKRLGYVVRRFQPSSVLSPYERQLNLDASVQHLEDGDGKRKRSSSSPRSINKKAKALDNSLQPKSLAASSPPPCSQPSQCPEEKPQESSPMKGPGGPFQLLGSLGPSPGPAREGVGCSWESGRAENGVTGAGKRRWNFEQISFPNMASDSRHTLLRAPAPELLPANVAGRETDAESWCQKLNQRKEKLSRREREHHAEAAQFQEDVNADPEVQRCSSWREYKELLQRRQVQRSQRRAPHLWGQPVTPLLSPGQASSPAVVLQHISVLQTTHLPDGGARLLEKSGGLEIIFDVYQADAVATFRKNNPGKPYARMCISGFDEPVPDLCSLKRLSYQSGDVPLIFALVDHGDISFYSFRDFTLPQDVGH

[4] = molecular target: the molecule itself; experiment: SEC-MALS; 330 µg TSEN15–34 complex at 1.65 mg/ml, Superdex 200 Increase, 25 mM HEPES-NaOH pH 7.5, 250 mM NaCl; heterodimer to dimer of heterodimers at high protein concentration

S.c. mature tRNA-Phe(GAA), 3'-Cy5
Kd [1]: 149 nM

S.c. pre-tRNA-Phe(GAA), 3'-Cy5
Kd [1]: 173 nM

S.c. pre-tRNA-Phe(GAA), unlabeled
Ki [2]: 197 nM

B1: RNA kinase CLP1 (enzyme, human, UniProt Q92989 1-425, looked up)
chain: MGEEANDDKKPTTKFELERETELRFEVEASQSVQLELLTGMAEIFGTELTRNKKFTFDAGAKVAVFTWHGCSVQLSGRTEVAYVSKDTPMLLYLNTHTALEQMRRQAEKEEERGPRVMVVGPTDVGKSTVCRLLLNYAVRLGRRPTYVELDVGQGSVSIPGTMGALYIERPADVEEGFSIQAPLVYHFGSTTPGTNIKLYNKITSRLADVFNQRCEVNRRASVSGCVINTCGWVKGSGYQALVHAASAFEVDVVVVLDQERLYNELKRDLPHFVRTVLLPKSGGVVERSKDFRRECRDERIREYFYGFRGCFYPHAFNVKFSDVKIYKVGAPTIPDSCLPLGMSQEDNQLKLVPVTPGRDMVHHLLSVSTAEGTEENLSETSVAGFIVVTSVDLEHQVFTVLSPAPRPLPKNFLLIMDIRFMDLK
notes: human CLP1, open reading frame, UniProtKB Q92989; source: Sf21 insect cells (baculovirus), co-expressed with the four TSEN subunits, purified (Ni-NTA, heparin, TEV, SEC); not shown: His6, N-terminal, cleaved
stoichiometry N [3]: 1 and 2

B2: truncated TSEN15–34 complex (TSEN15 residues 23–170 and TSEN34 residues 208–310) (complex, human)
chain 1: GFGDGGGAPSWAPEDAWMGTHPKYLEMMELDIGDATQVYVAFLVYLDLMESKSWHEVNCVGLPELQLICLVGTEIEGEGLQTVVPTPITASLSHNRIREILKASRKLQGDPDLPMSFTLAIVESDSTIVYYKLTDGFMLPDPQNISLR
chain 2: DWPHAGRPAHELRYSIYRDLWERGFFLSAAGKFGGDFLVYPGDPLRFHAHYIAQCWAPEDTIPLQDLVAAGRLGTSVRKTLLLCSPQPDGKVVYTSLQWASLQ
notes: human TSEN15, UniProtKB Q8WW01, residues 23–170; The SEC-MALS methods speak only of 'TSEN15–34 complex'; also called minimal TSEN15–34 complex; source: Sf21 insect cells (baculovirus), co-expressed, purified (Ni-NTA, TEV, SEC); not shown: His10, N-terminal, cleaved
stoichiometry N [4]: 2
